Data published in publication PMC7801428 (Nature Communications, 2021).

Molecular target: SARS-CoV-2 S trimer (stabilized S ectodomain, residues 1-1208, proline substitutions at 986 and 987, GSAS at … (SARS-CoV-2, Wuhan-Hu-1, proline substitution at residue 986 | proline substitution at residue 987 | …, biotin (EZ-Link Sulfo-NHS-LC-LC-Biotin) in the BLI experiments; not labelled for cryo-EM)
Test: BLI
Conditions: both partners purified

B1: human-mouse chimeric antibody 3C1 (c3C1) (antibody, V domains shown)
VH: EVQLQESGPSLVKPSQTLSLTCSVTGDSITNGYWNWIRKFPGNKLEYMGYISYSGSTYYSPSLKSRISITRDTSKNQHYLQLNSVTSEDTATYYCASDYHGSKYYFDYWGQGTTLTVSS
VL: DIVMTQSHKFMSTSVGHRVSITCKASQDVGNDVAWYQQKPGQSPKLLIYWASTRHTGVPDRFTGSGSGTDFTLTISNVQSEDLADYFCQQYNRYPYTFGGGTKLEIK
notes: also called chimeric MAb c3C1
Work on B1 yielded a Kd of less than 1 pM.
